Experimental data taken from publication PMC5115986 (Journal of molecular biology, 2016).

Tests used:
GST-Dbf4 = molecular target: T1, GST-Dbf4 (budding yeast, UniProt P32325 1-704); assay: pull-down
T1 sequence (looked up): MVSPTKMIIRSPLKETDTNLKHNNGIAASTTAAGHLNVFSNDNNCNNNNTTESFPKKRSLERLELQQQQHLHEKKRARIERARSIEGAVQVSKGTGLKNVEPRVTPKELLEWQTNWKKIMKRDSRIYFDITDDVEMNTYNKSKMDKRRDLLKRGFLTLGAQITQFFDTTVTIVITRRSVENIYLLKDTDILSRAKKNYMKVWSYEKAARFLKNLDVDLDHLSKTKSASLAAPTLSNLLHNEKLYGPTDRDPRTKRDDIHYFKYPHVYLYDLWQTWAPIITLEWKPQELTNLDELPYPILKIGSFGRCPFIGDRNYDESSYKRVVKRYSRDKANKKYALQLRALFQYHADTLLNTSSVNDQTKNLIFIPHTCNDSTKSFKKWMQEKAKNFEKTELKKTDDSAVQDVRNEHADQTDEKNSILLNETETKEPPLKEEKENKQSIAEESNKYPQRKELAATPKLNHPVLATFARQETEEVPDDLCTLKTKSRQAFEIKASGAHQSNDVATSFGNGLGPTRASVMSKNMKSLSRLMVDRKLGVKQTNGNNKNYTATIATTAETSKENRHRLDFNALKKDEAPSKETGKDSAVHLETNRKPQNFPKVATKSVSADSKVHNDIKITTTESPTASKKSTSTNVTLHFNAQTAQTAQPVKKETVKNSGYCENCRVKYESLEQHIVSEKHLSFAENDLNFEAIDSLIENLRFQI

GST-Cdc45 = molecular target: T2, GST-Cdc45 (budding yeast, UniProt Q08032 1-650); assay: pull-down
T2 sequence (looked up): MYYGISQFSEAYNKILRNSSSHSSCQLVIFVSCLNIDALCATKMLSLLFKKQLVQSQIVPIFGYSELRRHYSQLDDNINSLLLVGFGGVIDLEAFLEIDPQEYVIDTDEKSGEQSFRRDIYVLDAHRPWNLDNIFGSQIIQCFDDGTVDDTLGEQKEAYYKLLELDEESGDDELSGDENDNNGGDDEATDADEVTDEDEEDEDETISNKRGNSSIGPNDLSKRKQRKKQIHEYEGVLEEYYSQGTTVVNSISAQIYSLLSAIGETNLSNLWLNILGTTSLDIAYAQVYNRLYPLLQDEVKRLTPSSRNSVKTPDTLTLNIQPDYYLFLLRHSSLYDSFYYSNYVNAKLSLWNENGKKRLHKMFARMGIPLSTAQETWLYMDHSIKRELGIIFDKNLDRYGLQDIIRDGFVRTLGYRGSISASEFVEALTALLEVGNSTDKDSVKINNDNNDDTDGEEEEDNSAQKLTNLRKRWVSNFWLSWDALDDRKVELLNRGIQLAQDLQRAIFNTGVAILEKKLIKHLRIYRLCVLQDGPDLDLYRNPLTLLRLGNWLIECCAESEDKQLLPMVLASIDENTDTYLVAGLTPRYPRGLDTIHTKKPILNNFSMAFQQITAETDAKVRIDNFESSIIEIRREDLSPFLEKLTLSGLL

Row | Binder | binding result (GST-Dbf4) | binding result (GST-Cdc45)
1 | PKA-Mcm10 (wild-type), radiolabeled (natural protein, Saccharomyces cerevisiae, UniProt P32354 1-571, looked up, 32P label put on the PKA tag by protein kinase A with [gamma-32P]-ATP) MNDPREILAVDPYNNITSDEEDEQAIARELEFMERKRQALVERLKRKQEFKKPQDPNFEAIEVPQSPTKNRVKVGSHNATQQGTKFEGSNINEVRLSQLQQQPKPPASTTTYFMEKFQNAKKNEDKQIAKFESMMNARVHTFSTDEKKYVPIITNELESFSNLWVKKRYIPEDDLKRALHEIKILRLGKLFAKIRPPKFQEPEYANWATVGLISHKSDIKFTSSEKPVKFFMFTITDFQHTLDVYIFGKKGVERYYNLRLGDVIAILNPEVLPWRPSGRGNFIKSFNLRISHDFKCILEIGSSRDLGWCPIVNKKTHKKCGSPINISLHKCCDYHREVQFRGTSAKRIELNGGYALGAPTKVDSQPSLYKAKGENGFNIIKGTRKRLSEEEERLKKSSHNFTNSNSAKAFFDEKFQNPDMLANLDNKRRKIIETKKSTALSRELGKIMRRRESSGLEDKSVGERQKMKRTTESALQTGLIQRLGFDPTHGKISQVLKSSVSGSEPKNNLLGKKKTVINDLLHYKKEKVILAPSKNEWFKKRSHREEVWQKHFGSKETKETSDGSASDLEII | binds | –
2 | PKA-Mcm10-m2,3,4 (Mcm10-K216E-N313E-K314E), radiolabeled (natural protein, Saccharomyces cerevisiae, UniProt P32354 1-571, looked up, 32P label put on the PKA tag by protein kinase A with [gamma-32P]-ATP) MNDPREILAVDPYNNITSDEEDEQAIARELEFMERKRQALVERLKRKQEFKKPQDPNFEAIEVPQSPTKNRVKVGSHNATQQGTKFEGSNINEVRLSQLQQQPKPPASTTTYFMEKFQNAKKNEDKQIAKFESMMNARVHTFSTDEKKYVPIITNELESFSNLWVKKRYIPEDDLKRALHEIKILRLGKLFAKIRPPKFQEPEYANWATVGLISHESDIKFTSSEKPVKFFMFTITDFQHTLDVYIFGKKGVERYYNLRLGDVIAILNPEVLPWRPSGRGNFIKSFNLRISHDFKCILEIGSSRDLGWCPIVEEKTHKKCGSPINISLHKCCDYHREVQFRGTSAKRIELNGGYALGAPTKVDSQPSLYKAKGENGFNIIKGTRKRLSEEEERLKKSSHNFTNSNSAKAFFDEKFQNPDMLANLDNKRRKIIETKKSTALSRELGKIMRRRESSGLEDKSVGERQKMKRTTESALQTGLIQRLGFDPTHGKISQVLKSSVSGSEPKNNLLGKKKTVINDLLHYKKEKVILAPSKNEWFKKRSHREEVWQKHFGSKETKETSDGSASDLEII | binds | binds
